Experimental findings from publication PMC10146092, “Highly Sensitive β-Lactoglobulin Fluorescent Aptamer Biosensors Based on Tungsten Disulfide Nanosheets and DNase I-Assisted Signal Amplification” are described below.

The target in series [1] is ovalbumin (UniProt P01012 2-386). Description: fluorescence recovery on WS2 nanosheets; 10 ug/mL protein; no significant recovery; 200 nM FAM-aptamer, 750 ug/mL WS2 (10 min, room temperature), then β-Lg with 0.04 U/uL DNase I, 40 min at 37 °C; ex 490/em 518 nm; buffer, salt and pH not given in the material. The following applies: protein: commercial; label: 5'-FAM.
Sequence of ovalbumin (P01012 2-386): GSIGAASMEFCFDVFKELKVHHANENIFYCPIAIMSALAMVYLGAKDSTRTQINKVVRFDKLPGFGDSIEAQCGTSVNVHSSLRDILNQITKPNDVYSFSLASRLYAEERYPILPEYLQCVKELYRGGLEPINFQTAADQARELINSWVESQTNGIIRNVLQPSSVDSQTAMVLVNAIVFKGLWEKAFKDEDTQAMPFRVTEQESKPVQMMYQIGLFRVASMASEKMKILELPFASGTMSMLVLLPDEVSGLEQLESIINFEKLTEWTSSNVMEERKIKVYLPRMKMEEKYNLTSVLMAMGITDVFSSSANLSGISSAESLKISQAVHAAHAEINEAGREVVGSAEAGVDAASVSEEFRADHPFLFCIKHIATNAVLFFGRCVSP
Series [2] addresses T1, beta-lactoglobulin (β-Lg) (Bos taurus (cow's milk)?, UniProt P02754 17-178).
T1 sequence: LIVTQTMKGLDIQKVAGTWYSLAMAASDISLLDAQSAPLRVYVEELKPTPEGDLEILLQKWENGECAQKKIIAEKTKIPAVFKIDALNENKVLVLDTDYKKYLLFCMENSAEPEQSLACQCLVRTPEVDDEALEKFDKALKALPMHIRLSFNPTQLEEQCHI
Description: fluorescence recovery on WS2 nanosheets (FRET quenching); no DNase I; WS2 nanosheets; LOD 35 ng/mL; 200 nM FAM-aptamer, 750 ug/mL WS2 (10 min, room temperature), then β-Lg with 0.04 U/uL DNase I, 40 min at 37 °C; ex 490/em 518 nm; buffer, salt and pH not given in the material. The following applies: protein: commercial; chain copies: 2; label: 5'-FAM.

Series [3] has as its target T1, beta-lactoglobulin (β-Lg). Nature of the series: fluorescence recovery on WS2 nanosheets, DNase I amplified; DNase I; β-Lg 0.1-100 ug/mL; little fluorescence change, independent of β-Lg; 200 nM FAM-aptamer, 750 ug/mL WS2 (10 min, room temperature), then β-Lg with 0.04 U/uL DNase I, 40 min at 37 °C; ex 490/em 518 nm; buffer, salt and pH not given in the material. The following applies: protein: commercial; chain copies: 2; label: 5'-FAM.

B1: β-Lg aptamer (ssDNA)
DNA: CGACGATCGGACCGCAGTACCCACAGCCCCAACATCATGCCCATCCGTGTGTG
On to B1, for which the figures for the binding result in series [1] and in series [2] were “no binding” and “binds”, respectively.

B2: negative control DNA sequence (ssDNA)
DNA: CTAAGTCTGAAACATTACAGCTTGCTACACGAGAAGAGCCGCACGAGAACCCT
For B2, the binding result in series [3] is reported as “no binding”.
